Measured values published in the supplement of paper PMC12042874.
± gives the uncertainty stated by the source.

test: amyloid nucleation score (Sup35N fusion, yeast selection) (log enrichment); library NNK3; higher = more nucleation; inactive = no reads after selection
In short: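 Using DiMSum, nucleation scores were taken as the log enrichment of output over input reads, centred on the mode score of non-aggregating sequences. The input and output reads came from Illumina sequencing of plasmid inserts, with sequences under 100 input reads excluded. The yeast were psi-negative, expressed Sup35N fused to peptides of 20 random codons, were induced with 100 μM copper sulfate for 24 hours, and were grown 7 days at 30°C on medium lacking adenine and uracil.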

Amyloid nucleation score, inactive:
NWLVSWFLFFPNSPLFCYHW
NWRMVQNQVVWVLRLNTYHY
NYAYPIPIRLLIEAWRMGTA
NYGQALHWLLRGGSMWSQGT
NYIDGFFFVHWAGTLMHKDC
NYLVVLMGSTCMKVRPLGVS
NYNRAPMGTAET
NYVICVYFMAGVSACMTLLV
PCDQD
PCLFTSSVSIFYNDALLVLS
PCNFL
PCRTDICR
PDINM
PDNGLRAIMTAGPVFSRQSN
PEMFGRSWARDTRKVTVLAS
PFDVHKRR
PFENR
PFKFFW
PFLYGRYFVAISNS
PFWWPRKQLYVSQSRKTTAS
PGCTTN
PGDTQITYTGLSEFWCPGVA
PGITNLWLEMSHV
PGREIVVPHFR
PGSGIHNWMNCYRSLKE
PGVLLVWLSYSGSRLLS
PGVYKNVAFLR
PIFWR
PKAGALQQFMMRHSSHFQLS
PKMSPSAMRSCDDLASPFIS
PLCWNLNIRDTGIYRPRMRP
PLFFMPGNKWTYFSKSSADT
PLIWCWKIVGRAWFAESRIL
PLPPPRKAMASLFVFLAWMA
PLRSTKSIIVLMDEMRLIAN
PLTFRTMVFKALVEAWRKFN
PMMGSLYFVP
PMPCIYVSGVWHRVLLCFLS
PNARKMCMLFVTECFKVVPK
PNDVRNAFFCPPPTKKPTVA
PNGSEIENLMYRGTLSC
PNVMNNFVCITDPIPVGSMW
PPKGKSWMLIVVNRLGEDEQ
PPLYSRYLSFNGMTKVPWIC
PPTLQMVTVVGPKGWKVMFS
PQASVDQFLYFPIWTYLGIN
PQCESLMYCGD
PQHADVAFVT
PREWLGVLLMTVLNFWMTVV
PRGLVALGFGAFSKGPHGRS
PRQRLMMWSRRG
PRWETSYLIL
PSKFVHKSDLCDNGYLPCTR
PSLCFSAVQLRLPRDVFLKY
PSLLQVHKCLRIRLIWRWLW
PSRIGSDFSRFLSEECGQLR
PSTDVILSANWDDRRSGLYG
PSVIRNAYYAY
PSYFEYFVRIGFFG
PSYNCFTKFVADQTVTLRFS
PTATRGPMTLRSHASHHRTL
PTITNS
PTQNKSDKVACGR
PVKGSFDT
PVLML
PVTDLWLTFS
PVYGSLCRFYGVRYGR
PWHLIIDLQGWIFLVYEIGQ
PWRCKRWHFYMYVDCANLRQ
PYAGCIH
PYKEFPNNVRPTWNQRYNVK
PYLRT
PYSISMISTRYCLGRQHD
QARIWSSSVGAFSNCHSCRC
QCKGCFSPVFKSCFICR
QCLIYLYVFVLPVLEFGMDR
QCMIYYTDKLLKYSSCTRTM
QCPKCDLLMRDSDIRFTHAG
QDFYSACSNIVNST
QFIWRLLRDSTKNFTLLSYK
QFSMLMVVLCP
QFVCHHGSPAFPNDGVAKLL
QGIGGATVTFLRLFV
QGLSRIRTKQGLAWIGLYTV
QGNRS
QGYMFFCHYIDICS
QHMFQAWFTVNKFSRGECGF
QHRSESIFFVIKSLLLRGCI
QKLNIAFRWFWWFCTLSCNS
QLLCHYNSSSEFLTQKHRYW
QLMPKRAVKRDYRDSSWSGV
QLMYRE
QLQSYRQGTFGDQYSPSVHS
QLYVTPYLRDVWYDQASSYE
QMDRRTPLM
QMLLDRRGKSTAATRVAPTD
QNCQVLKFRAILFNYLLFLT
QNHTVHSARWDNGSTANTTT
QNVFWIVSGTSEWGSALVFG
QQHDELCGVHMGSGHF
QRAYVLVTLVFGA
QRMTNFLLGRVSV
QSEICLSWCIQSVGDVVDYR
QSFLATSFSFYFLSPGYVNY
QSFQRSVYFSSKGNTEGLFS
QSGSVCIGSHASLRRAVVRR
QSPRDTSPDLRTYCLVA
QSYVRQF
QTRELRSQLLMPFSITDVRS
QTSNMVAWCLSLFRAGRPTK
QTVTRLTNSNSKLYFQPDVA
QVLRSYHYGCYSGCGALHMR
QVNFGRGQRTLVWTGIRCSH
QYCVIMWPCIYFRVTFSF
QYGSLGSTYTSAYLWRLYVL
QYKLFFYWESMV
QYLCWCCVARRPGSGFRTVV
RAFMVSVSHCRMCWIWC
RAGTKLPLYL
RAKVISSWSLPGSSVKSYPA
RANWLGLVTVGS
RAWVLHCGNGYWYPLGQ
RCDIFTTTFEFREVHCLWVG

Amyloid nucleation score, -0.293 ± 0.89:
PCQDWARYAPGLPLPMGLAL

Amyloid nucleation score, -0.047 ± 0.72:
PHSQDMVWQCCWGGATAEES

Amyloid nucleation score, -0.062 ± 0.49:
QEGGRWEPQKGRWESQAYLS

Amyloid nucleation score, 1.75 ± 0.061:
PFPQWEKHYYFFAMNYFHFS

Amyloid nucleation score, 2.98 ± 0.058:
QIMILVCCQTGFWSERARRG

Amyloid nucleation score, 0.754 ± 0.22:
QGSYTAESTVHHWGFKMNNY

Amyloid nucleation score, 1.71 ± 0.066:
QSNFLFLDFANVYSHKQWCL

Amyloid nucleation score, 1.26 ± 0.08:
PMMWSVVVYNTNIYGLVCAM

Amyloid nucleation score, 1.46 ± 0.1:
PHFQTFRDYVLCGISFSYCE

Amyloid nucleation score, 0.894 ± 0.12:
PWDSLW

Amyloid nucleation score, -0.399 ± 1:
QNCIHKRRSLGSTCATEWDV

Amyloid nucleation score, -0.178 ± 0.82:
PVNGAVYTKGLTSWLRFIVV

Amyloid nucleation score, 0.782 ± 0.17:
NYSRPEL

Amyloid nucleation score, -1.06 ± 2.5:
PGYSFKVSA

Amyloid nucleation score, 0.781 ± 0.26:
PGDVRLGDIVLIFFLRM

Amyloid nucleation score, 0.186 ± 0.45:
QLFVRVIWDMP

Amyloid nucleation score, -0.68 ± 1.9:
PHNLNGPS

Amyloid nucleation score, 0.464 ± 0.37:
QNVWSSVDNRWSIVENCTMA

Amyloid nucleation score, 0.883 ± 0.16:
PVSNRLSCDSAFTFPYNMIF

Amyloid nucleation score, 0.004 ± 0.39:
RARLHSVAINDVHSFTVSLG

Amyloid nucleation score, -0.06 ± 0.54:
QLGLIVRNSCLSSIVVKGML

Amyloid nucleation score, 0.801 ± 0.27:
QISFGLLINLSVIFSGLDLV

Amyloid nucleation score, -0.362 ± 1.3:
PQPARLDQGGYISDMYCYVI

Amyloid nucleation score, 1.86 ± 0.091:
QCKVCIMLYKGDLRANGWYG

Amyloid nucleation score, 2.33 ± 0.075:
QCDVCVCCVARAEAVRRILG

Amyloid nucleation score, -0.882 ± 1.4:
QRSSHGPLGCLSDLQLNTLR

Amyloid nucleation score, 0.882 ± 0.2:
PIQGAMTRNYRFRTGRGFCL

Amyloid nucleation score, 3.12 ± 0.056:
QIALSYSCIITRCVCNLCQR

Amyloid nucleation score, 2.65 ± 0.079:
QARVRYDASTLLFGCTFC

Amyloid nucleation score, 2 ± 0.082:
PTELIACVAIYNVDYLYWIH

Amyloid nucleation score, 1.1 ± 0.14:
PRLNMGCMLFSEYTYCQMIL

Amyloid nucleation score, -0.114 ± 1.1:
PTRFMTMKETKPVCWWLGNR

Amyloid nucleation score, -0.47 ± 0.87:
PFIGVSMLSMG

Amyloid nucleation score, 1.5 ± 0.061:
QMSCNQRNISMGFKIGRFYM

Amyloid nucleation score, 2.55 ± 0.059:
PNNSIHQIICYIWNEYTWSC

Amyloid nucleation score, -0.077 ± 0.4:
NYARTFSRKRMVQKTRSGKG
